Paper doi:10.1101/2025.07.15.665015 (bioRxiv, 2025)

What was measured:
[1] = molecular target: T1, PKR (Homo sapiens, UniProt P19525 1-551); test: competition
[2] = molecular target: T1, PKR; test: single-molecule colocalization
[3] = molecular target: PKRΔKD (Homo sapiens, UniProt P19525 1-184, del185-551); test: single-molecule colocalization
[4] = molecular target: T1, PKR; test: single-molecule colocalization; remark: listed apart in the source
[5] = molecular target: T1, PKR; test: competition; remark: listed apart in the source
[6] = molecular target: the molecule itself; test: single-molecule TIRF two-colour co-localisation

B1: 25-bp dsRNA (dsRNA)
RNA 1: GGGUUUUCCCAGUCACGACGUUGUA
RNA 2: UACAACGUCGUGACUGGGAAAACCC
Does B1 bind [1]?
Result: binds

B2: 79-bp dsRNA (dsRNA)
RNA 1: GGGUUUUCCCAGUCACGACGUUGUAAAACGACGGCCAGUGAAUUCGAGCUCGGUACCCGGGGAUCCUCUAGAGUCGACC
RNA 2: GGUCGACUCUAGAGGAUCCCCGGGUACCGAGCUCGAAUUCACUGGCCGUCGUUUUACAACGUCGUGACUGGGAAAACCC
Which results are given for B2?
binding result [2]: binds; binding result [3]: binds

B3: mini-VA (structured_RNA)
RNA: GGGUAUCAUGGCGGACGACCGGGGUUCGAACCCCGGAUCCGGCCGUCCGCCGUGAUACCC
Does B3 bind [4]?
Result: binds

B4: 33-bp dsRNA (dsRNA)
RNA 1: GGGUUUUCCCAGUCACGACGUUGUAAAACGACG
RNA 2: CGUCGUUUUACAACGUCGUGACUGGGAAAACCC
Does B4 bind [5]?
Result: binds

B5: PKR(K-E) (K150E and K154E), Cy3-labelled (enzyme, human, UniProt P19525 1-551, looked up)
chain: MAGDLSAGFFMEELNTYRQKQGVVLKYQELPNSGPPHDRRFTFQVIIDGREFPEGEGRSKKEAKNAAAKLAVEILNKEKKAVSPLLLTTTNSSEGLSMGNYIGLINRIAQKKRLTVNYEQCASGVHGPEGFHYKCKMGQKEYSIGTGSTEQEAEQLAAKLAYLQILSEETSVKSDYLSSGSFATTCESQSNSLVTSTLASESSSEGDFSADTSEINSNSDSLNSSSLLMNGLRNNQRKAKRSLAPRFDLPDMKETKYTVDKRFGMDFKEIELIGSGGFGQVFKAKHRIDGKTYVIKRVKYNNEKAEREVKALAKLDHVNIVHYNGCWDGFDYDPETSDDSLESSDYDPENSKNSSRSKTKCLFIQMEFCDKGTLEQWIEKRRGEKLDKVLALELFEQITKGVDYIHSKKLIHRDLKPSNIFLVDTKQVKIGDFGLVTSLKNDGKRTRSKGTLRYMSPEQISSQDYGKEVDLYALGLILAELLHVCDTAFETSKFFTDLRDGIISDIFDKKEKTLLQKLLSKKPEDRPNTSEILRTLTVWKKSPEKNERHTC
modifications: Cy3 at the N-terminus, by sortase-mediated ligation of the peptide Cy3-CLPETGG
Does B5 bind [6]?
Result: binds
